In the Immune Epitope Database (IEDB):

Key:
HLA-B*15:01 = experiment: IEDB peptide-MHC binding, purified MHC/competitive/fluorescence; ≥ and ≤ were set here for values at or beyond the usual limits of such assays
HLA-A*03:01 = experiment: as above
HLA-A*24:02 = experiment: as above
HLA-B*51:01 = experiment: IEDB peptide-MHC binding, purified MHC/competitive/radioactivity; filed as Kd, often an IC50 or EC50 that approximates it; ≥ and ≤ were set here for values at or beyond the usual limits of such assays
HLA-B*54:01 = experiment: as above; settings: source organism: Vaccinia virus WR
HLA-A*02:02 = experiment: as above
HLA-B*53:01 = experiment: as above; settings: source organism: Vaccinia virus WR
HLA-B*35:01 = experiment: as above; settings: source organism: Vaccinia virus WR
HLA-A*33:01 = experiment: as above; settings: source organism: Vaccinia virus WR
HLA-B*07:02 = experiment: as above; settings: source organism: Vaccinia virus WR
HLA-A*02:03 = experiment: as above
HLA-A*02:06 = experiment: as above
HLA-A*68:02 = experiment: as above
HLA-A*02:01 [1] = experiment: IEDB peptide-MHC binding, purified MHC/competitive/fluorescence; ≥ and ≤ were set here for values at or beyond the usual limits of such assays
HLA-A*02:01 [2] = experiment: IEDB peptide-MHC binding, purified MHC/competitive/radioactivity; filed as Kd, often an IC50 or EC50 that approximates it; ≥ and ≤ were set here for values at or beyond the usual limits of such assays; settings: source organism: Variola virus
HLA-A*11:01 = experiment: IEDB peptide-MHC binding, purified MHC/competitive/fluorescence; ≥ and ≤ were set here for values at or beyond the usual limits of such assays; settings: source organism: Sudan ebolavirus
HLA-B*57:01 = experiment: IEDB peptide-MHC binding, purified MHC/competitive/radioactivity; filed as Kd, often an IC50 or EC50 that approximates it; ≥ and ≤ were set here for values at or beyond the usual limits of such assays
[3] = source organism: Zaire ebolavirus
[4] = source organism: Vaccinia virus WR
[5] = source organism: Dengue virus 2 Jamaica/1409/1983
[6] = source organism: Dengue virus 4 Dominica/814669/1981
[7] = source organism: Vaccinia virus
[8] = source organism: Dengue virus 3 Martinique/1243/1999
[9] = source organism: Sudan ebolavirus

## KFMAILQHH
HLA-B*15:01; [3]
  IC50: ≥ 327000 nM
HLA-A*03:01; [3]
  IC50: ≥ 301000 nM
HLA-A*24:02; [3]
  IC50: 16600 nM

## KNKLYLVDY
HLA-B*15:01; [4]
  IC50: 34200 nM

## LLTACTIFYI
HLA-B*51:01; [4]
  Kd: ≥ 69600 nM
HLA-B*54:01
  Kd: ≥ 27600 nM
HLA-A*02:02; [4]
  Kd: 2.72 nM
HLA-B*53:01
  Kd: ≥ 22100 nM
HLA-B*35:01
  Kd: ≥ 69900 nM
HLA-A*33:01
  Kd: 7390 nM
HLA-B*07:02
  Kd: ≥ 69600 nM
HLA-A*02:03; [4]
  Kd: 11.8 nM
HLA-A*02:06; [4]
  Kd: 55.8 nM
HLA-A*68:02; [4]
  Kd: 229 nM

## LMLCLHHAY
HLA-B*15:01; [3]
  IC50: 22300 nM
HLA-A*02:01 [1]; [3]
  IC50: 38100 nM

## MAISGDDCV
HLA-B*51:01; [5]
  Kd: 17400 nM
HLA-A*68:02; [5]
  Kd: 65.8 nM

## MILVPLITV
HLA-A*02:02; source organism: Variola virus
  Kd: 138 nM
HLA-A*02:01 [2]
  Kd: 14.6 nM
HLA-A*02:03; source organism: Variola virus
  Kd: 29.6 nM
HLA-A*02:06; source organism: Variola virus
  Kd: 2.55 nM
HLA-A*68:02; source organism: Variola virus
  Kd: 0.278 nM

## MIRILIGFLV
HLA-A*68:02; [6]
  Kd: 295 nM

## MMIQTRAAD
HLA-B*15:01; [7]
  IC50: ≥ 77200 nM
HLA-A*02:01 [1]; [7]
  IC50: ≥ 104000 nM

## NTFVLKKEV
HLA-A*68:02; [8]
  Kd: 80.9 nM

## SQGREAAVS
HLA-B*15:01; [3]
  IC50: 26900 nM

## SQIPSSSPT
HLA-B*15:01; [9]
  IC50: 8510 nM
HLA-A*02:01 [1]; [9]
  IC50: 30000 nM

## SSYYATSYL
HLA-B*15:01; [9]
  IC50: 24200 nM
HLA-A*03:01; [9]
  IC50: 18500 nM
HLA-A*11:01
  IC50: 2700 nM
HLA-A*24:02; [9]
  IC50: 955 nM
HLA-A*02:01 [1]; [9]
  IC50: 3160 nM

## TIIGTNGNH
HLA-B*15:01; [9]
  IC50: ≥ 150000 nM

## TTRLENVMW
HLA-B*57:01; [6]
  Kd: 14.6 nM

## TTRMENLLW
HLA-B*57:01; [8]
  Kd: 5.23 nM

## TTSQKTTWLP
HLA-B*57:01; source organism: Dengue virus 1 Brazil/97-11/1997
  Kd: 446 nM

## VVRLLTKPW
HLA-B*57:01; [5]
  Kd: 27.9 nM
